The text below walks through data of patent US20180362668.

Data set [1] addresses T1, VhH-Fc fusion protein chain B with T366S + L368A + Y407V + F405K + E357A. The experiment in a line: non-reducing SDS-PAGE densitometry of Protein A-purified co-transfection product; chain A:chain B vectors 1:4.
The target of data set [2] is T1, VhH-Fc fusion protein chain B with …. The experiment in a line: non-reducing SDS-PAGE densitometry of Protein A-purified co-transfection product; chain A:chain B vectors 4:1.
Data set [3] has as its target Fc protein chain B with D356C + T366S + L368A + Y407V. Description: non-reducing SDS-PAGE of Protein A-purified co-transfection product; chain A:chain B vectors 1:4.
For data set [4] the target is unchanged. Description: non-reducing SDS-PAGE of Protein A-purified co-transfection product; chain A:chain B vectors 4:1.
Data set [5] shares this target. The experiment in a line: non-reducing SDS-PAGE densitometry of Protein A-purified co-transfection product; chain A:chain B vectors 1:1.
Data set [6] deals with T2, VhH-Fc fusion protein chain B with D356C + T366S + L368A + Y407V. Description: non-reducing SDS-PAGE densitometry of Protein A-purified co-transfection product; chain A:chain B vectors 1:4.
For data set [7], the target named is T2, VhH-Fc fusion protein chain B with …. Description: non-reducing SDS-PAGE densitometry of Protein A-purified co-transfection product; chain A:chain B vectors 4:1.
Data set [8] concerns the target T3, VhH-Fc fusion protein chain B with T366S + L368A + Y407V + K409A + E357A. Description: non-reducing SDS-PAGE densitometry of Protein A-purified co-transfection product; chain A:chain B vectors 1:4.
In data set [9] the target is T3, VhH-Fc fusion protein chain B with …. The experiment in a line: non-reducing SDS-PAGE densitometry of Protein A-purified co-transfection product; chain A:chain B vectors 4:1.
The target of data set [10] is Fc protein chain B with D356C + T366S + L368A + Y407V + F405K. Description: non-reducing SDS-PAGE densitometry of Protein A-purified co-transfection product; chain A:chain B vectors 1:1.
Data set [11] has as its target T4, VhH-Fc fusion protein chain B with T366S + L368A + Y407V + K409A + K392D. Description: non-reducing SDS-PAGE densitometry of Protein A-purified co-transfection product; chain A:chain B vectors 1:4.
For data set [12], the target named is T4, VhH-Fc fusion protein chain B with …. The experiment in a line: non-reducing SDS-PAGE densitometry of Protein A-purified co-transfection product; chain A:chain B vectors 4:1.
The target in data set [13] is T5, VhH-Fc fusion protein chain B with T366S + L368G + Y407A + K409A. Description: non-reducing SDS-PAGE densitometry of Protein A-purified co-transfection product; chain A:chain B vectors 1:4.
Data set [14] concerns the target T5, VhH-Fc fusion protein chain B with …. The experiment in a line: non-reducing SDS-PAGE densitometry of Protein A-purified co-transfection product; chain A:chain B vectors 4:1.

Several values for one entry are separate records, joined by “and”; a condition that tells them apart may be missing. Equal values may be shown once.

B1: ScFv-Fc fusion protein chain A with T366W + K409A + Y349D + S354D (protein)
chain: EVQLLESGGGVVQPGRSLRLSCIASGFTFSSYPMTWVRQAPGKGLEWVASISYDGSYKYKADSMKGRLTISRDNSKNTLYLEMNSLTAEDTAVYYCARTAFFNAYDFWGQGTLVTVSSASTKGPSVGGGGSGGGGSEIVMTQSPATLSVSPGERATLSCRASQSVRSNLAWYQQKPGQAPRLLIYAASTRATGIPARFSGSGSGTEFTLTISSLQSEDFAVYYCQQYNEWFRTSGQGTKVEIKRDKTHTCPPCPAPELLGGPSVFLFPPKPKDTLMISRTPEVTCVVVDVSHENPEVKFNWYVDGVEVHNAKTKPREEQYNSTYRVVSVLTVLHQDWLNGKEYKCKVSNKALPAPIEKTISKAKGQPREPQVDTLPPDRDELTKNQVSLWCLVKGFYPSDIAVEWESNGQPENNYKTTPPVLDSDGSFFLYSALTVDKSRWQQGNVFSCSVMHEALHNHYTQKSLSLSPGK
As to B1, the ScFv-Fc/VhH-Fc heterodimer (%) was found to be 64% in data set [1] and 61% in data set [2].

B2: ScFv-Fc fusion protein chain A with T366W + K409A + Y349D (protein)
chain: EVQLLESGGGVVQPGRSLRLSCIASGFTFSSYPMTWVRQAPGKGLEWVASISYDGSYKYKADSMKGRLTISRDNSKNTLYLEMNSLTAEDTAVYYCARTAFFNAYDFWGQGTLVTVSSASTKGPSVGGGGSGGGGSEIVMTQSPATLSVSPGERATLSCRASQSVRSNLAWYQQKPGQAPRLLIYAASTRATGIPARFSGSGSGTEFTLTISSLQSEDFAVYYCQQYNEWFRTSGQGTKVEIKRDKTHTCPPCPAPELLGGPSVFLFPPKPKDTLMISRTPEVTCVVVDVSHENPEVKFNWYVDGVEVHNAKTKPREEQYNSTYRVVSVLTVLHQDWLNGKEYKCKVSNKALPAPIEKTISKAKGQPREPQVDTLPPSRDELTKNQVSLWCLVKGFYPSDIAVEWESNGQPENNYKTTPPVLDSDGSFFLYSALTVDKSRWQQGNVFSCSVMHEALHNHYTQKSLSLSPGK
Regarding B2, the ScFv-Fc/VhH-Fc heterodimer (%) amounted to 60% in [1] and 49% in data set [2].

B3: ScFv-Fc fusion protein chain A with Y349C + T366W + F405K (protein)
chain: EVQLLESGGGVVQPGRSLRLSCIASGFTFSSYPMTWVRQAPGKGLEWVASISYDGSYKYKADSMKGRLTISRDNSKNTLYLEMNSLTAEDTAVYYCARTAFFNAYDFWGQGTLVTVSSASTKGPSVGGGGSGGGGSEIVMTQSPATLSVSPGERATLSCRASQSVRSNLAWYQQKPGQAPRLLIYAASTRATGIPARFSGSGSGTEFTLTISSLQSEDFAVYYCQQYNEWFRTSGQGTKVEIKRDKTHTCPPCPAPELLGGPSVFLFPPKPKDTLMISRTPEVTCVVVDVSHENPEVKFNWYVDGVEVHNAKTKPREEQYNSTYRVVSVLTVLHQDWLNGKEYKCKVSNKALPAPIEKTISKAKGQPREPQVCTLPPSRDELTKNQVSLWCLVKGFYPSDIAVEWESNGQPENNYKTTPPVLDSDGSFKLYSKLTVDKSRWQQGNVFSCSVMHEALHNHYTQKSLSLSPGK
Turning to B3, the ScFv-Fc/Fc heterodimer (%) in data set [3] is 49%; in data set [4] it was 66%; in data set [5] it was 60% and 70%. In addition, the values for the ScFv-Fc/VhH-Fc heterodimer (%) in [6] and in data set [7] were 39% and 55%, respectively.

B4: ScFv-Fc fusion protein chain A with Y349C + T366W (protein)
chain: EVQLLESGGGVVQPGRSLRLSCIASGFTFSSYPMTWVRQAPGKGLEWVASISYDGSYKYKADSMKGRLTISRDNSKNTLYLEMNSLTAEDTAVYYCARTAFFNAYDFWGQGTLVTVSSASTKGPSVGGGGSGGGGSEIVMTQSPATLSVSPGERATLSCRASQSVRSNLAWYQQKPGQAPRLLIYAASTRATGIPARFSGSGSGTEFTLTISSLQSEDFAVYYCQQYNEWFRTSGQGTKVEIKRDKTHTCPPCPAPELLGGPSVFLFPPKPKDTLMISRTPEVTCVVVDVSHENPEVKFNWYVDGVEVHNAKTKPREEQYNSTYRVVSVLTVLHQDWLNGKEYKCKVSNKALPAPIEKTISKAKGQPREPQVCTLPPSRDELTKNQVSLWCLVKGFYPSDIAVEWESNGQPENNYKTTPPVLDSDGSFFLYSKLTVDKSRWQQGNVFSCSVMHEALHNHYTQKSLSLSPGK
Turning to B4, the ScFv-Fc/Fc heterodimer (%) in data set [3] is 44%; in data set [4], 42%.

B5: ScFv-Fc fusion protein chain A with T366W + F405K + Y349D + S354D (protein)
chain: EVQLLESGGGVVQPGRSLRLSCIASGFTFSSYPMTWVRQAPGKGLEWVASISYDGSYKYKADSMKGRLTISRDNSKNTLYLEMNSLTAEDTAVYYCARTAFFNAYDFWGQGTLVTVSSASTKGPSVGGGGSGGGGSEIVMTQSPATLSVSPGERATLSCRASQSVRSNLAWYQQKPGQAPRLLIYAASTRATGIPARFSGSGSGTEFTLTISSLQSEDFAVYYCQQYNEWFRTSGQGTKVEIKRDKTHTCPPCPAPELLGGPSVFLFPPKPKDTLMISRTPEVTCVVVDVSHENPEVKFNWYVDGVEVHNAKTKPREEQYNSTYRVVSVLTVLHQDWLNGKEYKCKVSNKALPAPIEKTISKAKGQPREPQVDTLPPDRDELTKNQVSLWCLVKGFYPSDIAVEWESNGQPENNYKTTPPVLDSDGSFKLYSKLTVDKSRWQQGNVFSCSVMHEALHNHYTQKSLSLSPGK
As to B5, the ScFv-Fc/VhH-Fc heterodimer (%) is 86% in data set [8] and 61% in data set [9].

B6: ScFv-Fc fusion protein chain A with Y349C + T366W + K409A + L368E (protein)
chain: EVQLLESGGGVVQPGRSLRLSCIASGFTFSSYPMTWVRQAPGKGLEWVASISYDGSYKYKADSMKGRLTISRDNSKNTLYLEMNSLTAEDTAVYYCARTAFFNAYDFWGQGTLVTVSSASTKGPSVGGGGSGGGGSEIVMTQSPATLSVSPGERATLSCRASQSVRSNLAWYQQKPGQAPRLLIYAASTRATGIPARFSGSGSGTEFTLTISSLQSEDFAVYYCQQYNEWFRTSGQGTKVEIKRDKTHTCPPCPAPELLGGPSVFLFPPKPKDTLMISRTPEVTCVVVDVSHENPEVKFNWYVDGVEVHNAKTKPREEQYNSTYRVVSVLTVLHQDWLNGKEYKCKVSNKALPAPIEKTISKAKGQPREPQVCTLPPSRDELTKNQVSLWCEVKGFYPSDIAVEWESNGQPENNYKTTPPVLDSDGSFFLYSALTVDKSRWQQGNVFSCSVMHEALHNHYTQKSLSLSPGK
Regarding B6, the ScFv-Fc/Fc heterodimer (%) in [10] amounted to 30%.

B7: ScFv-Fc fusion protein chain A with T366W + F405K + D399S (protein)
chain: EVQLLESGGGVVQPGRSLRLSCIASGFTFSSYPMTWVRQAPGKGLEWVASISYDGSYKYKADSMKGRLTISRDNSKNTLYLEMNSLTAEDTAVYYCARTAFFNAYDFWGQGTLVTVSSASTKGPSVGGGGSGGGGSEIVMTQSPATLSVSPGERATLSCRASQSVRSNLAWYQQKPGQAPRLLIYAASTRATGIPARFSGSGSGTEFTLTISSLQSEDFAVYYCQQYNEWFRTSGQGTKVEIKRDKTHTCPPCPAPELLGGPSVFLFPPKPKDTLMISRTPEVTCVVVDVSHENPEVKFNWYVDGVEVHNAKTKPREEQYNSTYRVVSVLTVLHQDWLNGKEYKCKVSNKALPAPIEKTISKAKGQPREPQVYTLPPSRDELTKNQVSLWCLVKGFYPSDIAVEWESNGQPENNYKTTPPVLSSDGSFKLYSKLTVDKSRWQQGNVFSCSVMHEALHNHYTQKSLSLSPGK
As to B7, the ScFv-Fc/VhH-Fc heterodimer (%) turned out to be 69% in [11] and 66% in data set [12].

B8: ScFv-Fc fusion protein chain A with T366W + F405K (protein)
chain: EVQLLESGGGVVQPGRSLRLSCIASGFTFSSYPMTWVRQAPGKGLEWVASISYDGSYKYKADSMKGRLTISRDNSKNTLYLEMNSLTAEDTAVYYCARTAFFNAYDFWGQGTLVTVSSASTKGPSVGGGGSGGGGSEIVMTQSPATLSVSPGERATLSCRASQSVRSNLAWYQQKPGQAPRLLIYAASTRATGIPARFSGSGSGTEFTLTISSLQSEDFAVYYCQQYNEWFRTSGQGTKVEIKRDKTHTCPPCPAPELLGGPSVFLFPPKPKDTLMISRTPEVTCVVVDVSHENPEVKFNWYVDGVEVHNAKTKPREEQYNSTYRVVSVLTVLHQDWLNGKEYKCKVSNKALPAPIEKTISKAKGQPREPQVYTLPPSRDELTKNQVSLWCLVKGFYPSDIAVEWESNGQPENNYKTTPPVLDSDGSFKLYSKLTVDKSRWQQGNVFSCSVMHEALHNHYTQKSLSLSPGK
On to B8, for which the ScFv-Fc/VhH-Fc heterodimer (%) in [13] came out at 93%; in [14], 77%.
